Measured values published in article PMC2855763.

Assays:
[1] = target: VFP (vivid Verde fluorescent protein) (Cyphastrea microphthalma); assay: SEC
[2] = target: dVFP (VFP T160A) (Cyphastrea microphthalma); assay: SEC

Row | stoichiometry N [1] | stoichiometry N [2] | Substance
1 | 2 |  | VFP (vivid Verde fluorescent protein) (natural protein)
2 |  | 2 | dVFP (VFP T160A) (natural protein)
